Drawing on patent publication US20240033343A1, this text covers EC50 (read off the curve) and Kd for 5 substances.

The EC50 (read off the curve) is the concentration at which the effect is half-maximal. The low end stands for a more potent agent, the high end for a less potent agent. As a reminder, the Kd is the free concentration of one partner at which half of the binding sites on the other are occupied at equilibrium, for simple one-to-one binding.

Like-named read-outs stand apart in the source and are kept apart here.

In experiment [1] the target is SARS-CoV-2 Sclamp (SARS-CoV-2) (UniProt P0DTC2). The experiment can be described thus: ELISA on purified antigen, antibody titrated.
Experiment [2] concerns the target SARS-CoV-2-foldon (SARS-CoV-2) (UniProt P0DTC2). The experiment can be described thus: ELISA on purified antigen, antibody titrated. A general note: An ELISA detects its analyte on a solid surface through an enzyme-linked reagent.
Experiment [3] deals with SARS-CoV-2 Sclamp (SARS-CoV-2) (UniProt P0DTC2).
Experiment [4] shares this target. The experiment can be described thus: characterization of the lead candidate; ELISA per paragraph 282.

Take huCR3022 (antibody): the half-maximal effective concentration (EC50 (read off the curve)) in experiment [1] and in experiment [2] was 0.6 nM throughout.

In experiment [3], CB6 (antibody) displayed a dissociation constant Kd of 0.15 nM.

As to S309 (antibody), the dissociation constant (Kd) in experiment [3] was determined as 0.08 nM.

Regarding DH1047 (antibody), the EC50 (read off the curve) amounted to 0.3 nM in experiment [1] and 0.4 nM in experiment [2].

CR3022 (antibody): the Kd stood at 0.3 nM in experiment [4] and 0.13 nM in experiment [3].
